The values that follow are results of earlier work, collected in paper PMC10454195.

This data set concerns the target GLP-1 receptor (Homo sapiens) (UniProt P43220).
Sequence of UniProt P43220 (P43220 24-463): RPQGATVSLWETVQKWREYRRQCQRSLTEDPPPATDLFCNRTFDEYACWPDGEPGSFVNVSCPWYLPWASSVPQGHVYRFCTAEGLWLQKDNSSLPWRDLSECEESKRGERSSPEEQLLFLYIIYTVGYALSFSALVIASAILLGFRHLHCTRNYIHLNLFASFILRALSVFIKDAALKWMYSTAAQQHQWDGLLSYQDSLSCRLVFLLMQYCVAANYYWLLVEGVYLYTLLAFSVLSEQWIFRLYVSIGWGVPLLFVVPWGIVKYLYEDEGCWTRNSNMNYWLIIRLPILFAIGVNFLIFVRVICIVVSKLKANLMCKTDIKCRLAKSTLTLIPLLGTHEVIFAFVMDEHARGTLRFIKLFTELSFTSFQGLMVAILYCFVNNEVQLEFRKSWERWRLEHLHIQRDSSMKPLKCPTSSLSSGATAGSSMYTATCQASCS

Sequence of GLP-1 (P01275 98-127): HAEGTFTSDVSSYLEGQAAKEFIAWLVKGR

The term Kd denotes the equilibrium constant for the complex coming apart. In the case of GLP-1 (from UniProt P01275), the equilibrium dissociation constant (Kd) was 5 nM.
